Measured values as given in patent publication US20240262905A1.
Where two headings read alike, the source gives them in different places.

What was measured:
Insulin [1] = test: ELISA, plate coated with insulin 5 ug/mL, test article at 100 nM, anti-human Fc-HRP detection
Insulin [2] = test: as above; remark: listed apart in the source

| Insulin polyreactivity score (Insulin [1]) | Insulin polyreactivity score (Insulin [2]) | Substance |
| --- | --- | --- |
| 18 | 40 | Lenzilumab (antibody) |
| 2.2 | 1.4 | Elotuzumab (antibody) |
